# Assay results as given in patent publication US20220228157A1, “GENE EDITING IN DIVERSE BACTERIA” (priority 2019, published 2022).
# B1: SR081: SSAP candidate (protein)
# chain: MSKEFYARLAAIQENLNAPKNQYNSFGKYKYRSCEDILEGVKPLLNGLFLSISDEVVLIGDRYYVKATATITDGENSHTATALAREEESKKGMDSAQVTGATSSYARKYCLNGLFGIDDAKDADTDEHKHQQNAAAKQSNPSPTPEQVLKAFTDAAMQKNTVEELKQAFAKAWKMLEGTPEQHKAQDVYNIRRDELEGAAA
# modifications: Bacteriophage HK022
# notes: SSAP candidate
# B2: PF074: SSAP candidate (protein, listed as Rhizobium loti)
# chain: MMNAITTYTHSPRQLALIQKTVAKDCNTDEFNLFVEVARAKGLDPFLGQIIPMIFSKGDSNKRKMTIIISRDGQRVIAQRCGDYRPASKPPSYEFDAELKSETNPQGIVSATVYLWKQDAKTAAWFEVAGQSYWDEFAPISYPYDAYKMVDTGETWEDSGKPKKKRVLRDGATPQLDDSGNWCRMPRLMIAKCAEMQALRAGWPEQFTGLYDEAEMDRAKVLEMAASEIVAHEQEENRLRLVAGNDAITMSWGDGWALENVPAGEFMDRCLAFIRESDHQTVVKWNSANRAGLQLFWAKHPGDALELKKAIEKASRAPVEIDHIADAARREIAQHPVSAG
# B3: MspRecT: RecT variant known to enable high genome editing efficiency in M. smegmatis (protein)
# chain: MAENAVTKQDSPKAPETISQVLQVLVPQLARAVPKGMDPDRIARIVQTEIRKSRNAKAAGIAKQSLDDCTQESFAGALLTSAALGLEPGVNGECYLVPYRDTRRGVVECQLIIGYQGIVKLFWQHPRASRIDAQWVGANDEFHYTMGLNPTLKHVKAKGDRGNPVYFYAIVEVTGAEPLWDVFTADEIRELRRGKVGSSGDIKDPQRWMERKTALKQVLKLAPKTTRLDAAIRADDRPGTDLSQSQALALPSTVKPTADYIDGEIAEPHEVDTPPKSSRAQRAQRATAPAPDVQMANPDQLKRLGEIQKAEKYNDADWFKFLADSAGVKATRAADLTFDEAKAVIDMFDGPNA
# B4: SR063: SSAP candidate (protein)
# chain: MHLIHQSGEVKMQLSPETNEILPALFNARNKFAKAKKDAKNNHLKNSYATLDAMMAAVSPALTDNDIMILQSMLDTSTETTFHLETMLIHKSGQWAKFFMMMPIAKRDPQGVGSAMTYARRYSLAAALGISQSDDDAQLAVKSVKDWKKELDACEDIESLKDVWANAYRQTDTASKSIIQDHYNALKAKFEIGKARGIRPAQPEQKKQVEATSAKPVQSQSITNFE
# modifications: Bacteriophage T1
# notes: SSAP candidate
# B5: PF076: SSAP candidate (protein)
# chain: MTGPELAAAAKQTAQQAGSATVKKFFEANRGTLEALLPRHFDSERMLKLALGALRTTPKLANASLSSLLGSVVTCAQLGLEPNTPLGHAYLLPFDKREKQNGQWVTVETQVQVIIGYKGMLDLARRSGQIVSIAAHEVCQNDEFVFAYGLNEELVHRPAMKDRGPVIGFYAVAKLTGGGYSFEFMSVDEVNHIRDKAAEKNRAKRDAAGNPIITGPWADNYVEMGRKTVLRRLFKYLPISIESLAFASAVDGQAIREPAPLEQVAFESSEPAEEPTSYDQQDEDLRALEQSQPARVPPVQVEQPAEAWQPSAEEAAELERQQAAEAAADQQRASAPRGRGQRSMSLE
# modifications: Methyloversatilis universalis (strain ATCC BAA-1314 / JCM 13912 /FAM5)
# notes: SSAP candidate
# B6: L1SSB: single-stranded binding protein from L. lactis (protein)
# chain: MINNVVLVGRITRDPELRYTPQNQAVATFSLAVNRQFKNANGEREADFINCVIWRQQAENLANWAKKGALIGVTGRIQTRNYENQQGQRVYVTEVVADSFQMLESRSARDGMGGGASAGSYSAPSQSTNNTPRPQTNNNSATPNFGRDADPFGSSPMEISDDDLPF
# B7: LrpRecT: RecT variant known to enable high genome editing efficiency in L. lactis (protein)
# chain: MANQVAQQQKPTKLTDLVLDRVKQMQDTQDLSLPKNYNASNALNAAFLELQKVQDRNHRPALEVCSHDSIVKSLLDMTLQGLSPAKDQCYFIVYGNELQMQRSYFGTVAAVKRLDGVKKVRAEVVHEKDDFEIGANEDMELVVKRFVPKFENQDNQIIGAFAMIKTDEGTDFTVMTKKEIDQSWAQTRQKNNKVQQNFSQEMAKRTVLNRAAKMFINTSDDSDLLTGAINDTTSNEYDDERRDVTPVEDEKQSTDKLLEGFQKSQEAKAKWVSNDGNSNEGKETSEEVADGQTELFSEGTIKPADEADS
# B8: PF071: SSAP candidate (protein)
# chain: MALTPGLVTLNHAKIMSNESTDKLDLPQAPVPKKTLYEIVMSEDVKTHITQFVEGMMTPERCISIFWNCCQKTPLLQQCAPITLISSLKNLLLMRCEPDGIHGYLVPFWVNDKRTGNSILTCAPVPSARGLMRMARSNGVTNLNIGIVREGEPFSWRLDDGKFTMGHIPGWGDNEDPIRGFYCTWTDKDSYLHGERMSLKAVEEIKGRSKSKNKKGEIVGPWVTDFGQMGLKTVIKRASKQWDLPLVIQAAMQAADDQEFEGNMRNVTPEKTDGPAEGETPWNNAPAPEAFQNDQPEALPEPKPEGQDDLIPGLKMPAPKETATVNMEDY
# modifications: Akkermansia sp KLE1798
# notes: SSAP candidate
# Experiments:
# [1] = tested on: 90 bp oligos pre-coated with SSB; assay: Oligonucleotide annealing and quenching in vitro; type: biochemical; details: two 90 bp oligos pre-coated with SSB
# From the text: It was first whether two 90 bp oligos could anneal if they were pre-coated with SSB. SSBs was purified from E. coli (gram-negative), where most recombineering work has been performed, and L. lactis (gram-positive), a lactic acid bacterium phylogenetically distantly related to E. coli. […] It was next tested capacity of a phage RecT protein to overcome this SSB-mediated inhibition of annealing. Thus, Redβ, which is not broadly portable, but mediates efficient oligonucleotide annealing in E. coli, was purified. […] These preliminary results gave us an indication that while bacterial SSBs inhibit oligonucleotide annealing in vitro, RecTs overcome the inhibitory effect in an SSB-specific manner.
# Fluorescent (tolC-r.null.mut-3′FAM) and quenching (tolC-f.null.mut-5′IBFQ) oligos were ordered from Integrated DNA Technologies. Unless otherwise indicated, 50 nM of each oligo was incubated in 25 mM TRIS-HCl pH 7.4 with 1.0 μM Ec_SSB or Ll_SSB at 30° C. for 30 minutes. 100 μl of each oligo mixture were then combined into a 96-well clear-bottom black assay plate (Costar), incubated a further 60 minutes at 30° C., and annealing was tracked on a Synergy H4 microplate reader (BioTek) with fluorescence excitation set to 495 nm and emission set to 520 nm. After 60 minutes, 20 μl of a solution with or without 25 μM Redβ and containing 100 mM MgCl2 was added to achieve a final reaction concentration of 2.5 μM Redβ and 10 mM MgCl2. The annealing was then tracked over 10 hours in a the Synergy H4 microplate reader with the setting indicated above.
# Staphylococcus aureus = assay: SSAP candidate enrichment; type: cell-based
# Method: (§1) The editing efficiency of SSAP candidates was also tested in Agrobacterium tumefaciens and in Staphylococcus aureus using the methods described above.
# [2] = tested on: Agrobacterium tumefaciens; assay: SSAP candidate enrichment; type: cell-based
# Method: as §1
# E. coli = assay: Allelic recombination frequency, selective vs non-selective plates; type: cell-based, Escherichia coli; details: RecT alone
# Method: (§2) Four variants known to enable high genome editing efficiency were selected (Redβ and PapRecT in E. coli, LrpRecT in L. lactis, and MspRecT in M. smegmatis), and tested codon optimized versions of all four in both E. coli (gram-negative), and L. lactis (gram-positive). Genome editing efficiency was measured by introducing oligos encoding known antibiotic resistance mutations, and compared the antibiotic resistant cell counts to the total number of viable cells in the population (FIGS. 17E-17F). […] In L. lactis, LrpRecT was the only functional homolog, and improved oligo incorporation 7,700-fold, while the three other RecT variants were nearly non-functional, improving oligo incorporation less than 7-fold (FIG. 17H). No RecT protein functioned well both in E. coli and L. lactis.
# A single colony of E. coli was grown overnight to saturation. In the morning 30 μL of dense culture was inoculated into 3 mL of fresh media and grown for 1 hour. To induce gene expression of the pARC8 vector for recombineering experiments, L-arabinose was added to a final concentration of 0.2% (w/v) and the cells were grown an additional hour. 1 mL of cells were pelleted at 4° C. by centrifugation at 12,000×g for 2.5 minutes and washed twice with 1 mL of ice-cold dH2O. Cells were resuspended in 50 μL ice-cold dH2O containing DNA and transferred to a pre-chilled 0.1 cm electroporation cuvette.
# (§3) Electrocompetent cells were electroporated with 90-mer oligos at: 1 uM for E. coli, 50 μg for L. lactis, and 10 uM for C. crescentus. 70-mer oligos were used at 1 μg for M. smegmatis. All oligos were obtained from IDT and can be found under “Oligonucleotides for genome editing” in materials and methods. For dsDNA experiments L. lactis was electroporated with 1.5 μg purified linear dsDNA. Cells were electroporated using a Bio-Rad gene pulser set to 25 μF, 200 S2, and 1.8 kV for E. coli, 2.0 kV for L. lactis, and 1.5 kV for C. crescentus and to 1000Ω and 2.5 kV for M. smegmatis. Immediately after electroporation, cells were recovered in fresh media for 3 hours for E. coli, 1 hour for L. lactis, overnight for M. smegmatis and overnight for C. crescentus. L. lactis recovery media was supplemented with MgCl2 and CaCl2) at a concentration of 20 mM and 2 mM, respectively. E. coli recovery media was supplemented with carbenicillin. M. smegmatis recovery media was supplemented with hygromycin. C. crescentus recovery media was supplemented with 0.3% xylose and kanamycin. After recovery, the cells were serial diluted and plated on non-selective vs. selective agar plates to obtain approximately 50-500 CFU/plate. Colonies were counted using a custom script in Fiji, and allelic recombination frequency was calculated by dividing the number of colonies on selective plates, with the number of colonies on non-selective plates.
# L. rhamnosus = type: cell-based
# Method: Finally, the model for RecT was used to establish recombineering in L. rhamnosus, a well-studied probiotic used to treat a variety of illnesses including diarrhea and bacterial vaginosis. Although the L. rhamnosus SSB and L. lactis SSB only have 47% identity, they share identical SSB C-terminal tail 7 amino acids. It was determined whether LrpRecT (which functions in L. lactis) is portable to L. rhamnosus, while the other RecT proteins would not be functional.
# L. lactis = assay: Allelic recombination frequency, selective vs non-selective plates; type: cell-based, Lactococcus lactis; details: RecT alone
# Method: as §2
# A single colony of L. lactis was grown overnight to saturation. 500 μL of dense culture was inoculated into 5 mL of fresh media, supplemented with 500 mM sucrose and 2.5% (w/v) glycine, and grown for 3 hours. To induce gene expression of the pJP005 vector for recombineering experiments, the cells were grown for an additional 30 min after adding 1 ng/mL freshly diluted nisin, unless stated otherwise. For the optimized condition (FIG. 20B), 10 ng/mL nisin was used. Cells were pelleted at 4° C. by centrifugation at 5,000×g for 5 minutes and washed twice with 2 mL of ice-cold electroporation buffer (500 mM sucrose containing 10% (w/v) glycerol) by centrifugation at 13,200×g for 2.5 minutes. Cells were resuspended in 80 μL ice-cold electroporation buffer containing DNA and transferred to a pre-chilled 0.1 cm electroporation cuvette.
# as §3
molecule,measurement,setting,value
EcSSB: single-stranded binding protein from E. coli [reference compound],Effect of SSB on oligonucleotide annealing,[1],completely inhibited oligonucleotide annealing
B1,Editing efficiency (enrichment) relative to other SSAP candidates,Staphylococcus aureus,increase in editing efficiency
B2,Editing efficiency (enrichment) relative to other SSAP candidates,[2],increase in editing efficiency
B3,Improvement of oligo incorporation,E. coli,290 fold
same,Toxicity in L. rhamnosus,L. rhamnosus,toxic
B4,Editing efficiency (enrichment) relative to other SSAP candidates,Staphylococcus aureus,increase in editing efficiency
B5,Editing efficiency (enrichment) relative to other SSAP candidates,[2],increase in editing efficiency
B6,Effect of SSB on oligonucleotide annealing,[1],completely inhibited oligonucleotide annealing
B7,Improvement of oligo incorporation,E. coli,5.6 fold
same,Oligonucleotide incorporation,L. rhamnosus; L. rhamnosus,three orders of magnitude above the background level
same,Improvement of oligo incorporation,L. lactis,"7,700 fold"
B8,Editing efficiency (enrichment) relative to other SSAP candidates,[2],increase in editing efficiency
